Experimental data reported in publication PMC6085627.
One block for each binder: values may come before it.

Legend:
[1] = target: human TLR4 (human), O00206; assay: SPR; Biacore T200; TLR4 amine-coupled on CM5 (800 RU); GST-A-box (310-10,000 nM), GST-B-box (1 and 5 μM), A-box or GST injected at 30 μL/min for 60 s, 25 °C, dissociation 2 min; HBS-EP pH 7.4; 1:1 binding supposed; apparent KD
[2] = target: Human TLR4/MD-2 complex (human), O00206; assay: SPR; Biacore T200; TLR4/MD-2 amine-coupled on CM5 (1100 RU); GST-A-box, GST-B-box (150-5000 nM), A-box or GST injected at 30 μL/min for 60 s, 25 °C, dissociation 1 min; HBS-EP pH 7.4; GST-A-box: association and dissociation fitted separately to a 1:1 model; GST-B-box: steady-state affinity model; apparent KD
Recombinant GST-A-box = assay: SPR; Biacore T200; GST-A-box (750 RU) or GST-B-box (1000 RU) amine-coupled on CM5; MD-2 injected (17-500 nM) at 30 μL/min for 60 s, 25 °C, dissociation 1 min; HBS-EP pH 7.4; steady-state affinity model; apparent KD
Recombinant GST-B-box = assay: as above
[3] = target: human TLR4 (human), O00206; assay: SPR; Biacore T200; rhTLR4 amine-coupled on CM5 (~800 RU); HMGB1 isoforms injected at 30 μL/min for 60 s, 25 °C, dissociation 1-2 min; HBS-EP pH 7.4; 1:1 binding supposed; apparent KD; conditions: remark: other sources report otherwise
[4] = target: Human TLR4 (rhTLR4) (human), O00206; assay: SPR; TLR4/MD-2 complex or TLR4 coated on a CM5 chip; A-box protein injected as analyte (0-5 µM on TLR4/MD-2, 0-10 µM on TLR4); Biacore T200, HBS-EP buffer pH 7.4
[5] = target: Human TLR4/MD-2 complex (human), O00206; assay: as above
Target sequence in this assay (O00206 24-631, chain 1 of 2, one chain of several): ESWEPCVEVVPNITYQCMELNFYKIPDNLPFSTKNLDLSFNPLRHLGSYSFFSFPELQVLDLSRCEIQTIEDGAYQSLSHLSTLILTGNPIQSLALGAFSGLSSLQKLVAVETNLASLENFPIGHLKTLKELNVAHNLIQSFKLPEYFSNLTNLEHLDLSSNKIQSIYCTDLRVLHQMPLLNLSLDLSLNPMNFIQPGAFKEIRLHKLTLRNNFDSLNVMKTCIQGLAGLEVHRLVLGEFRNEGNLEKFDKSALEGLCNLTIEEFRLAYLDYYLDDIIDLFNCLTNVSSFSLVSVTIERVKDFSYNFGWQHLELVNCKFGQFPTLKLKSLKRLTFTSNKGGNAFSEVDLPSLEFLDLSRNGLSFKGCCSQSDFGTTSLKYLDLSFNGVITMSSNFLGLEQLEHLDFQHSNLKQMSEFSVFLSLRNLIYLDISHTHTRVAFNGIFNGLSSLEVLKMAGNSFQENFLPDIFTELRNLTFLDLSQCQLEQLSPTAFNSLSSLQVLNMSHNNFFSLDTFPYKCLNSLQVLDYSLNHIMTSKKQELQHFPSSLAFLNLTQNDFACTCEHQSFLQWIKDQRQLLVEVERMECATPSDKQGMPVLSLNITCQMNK

human TLR4 (human), O00206, sequence (O00206 24-631): as the sequence (O00206 24-631, chain 1 of 2, one chain of several) above
Human TLR4 (rhTLR4) (human), O00206, sequence (O00206 24-631): as the sequence (O00206 24-631, chain 1 of 2, one chain of several) above

B1: Recombinant GST-A-box (domain or fragment)
chain: PRGKMSSYAFFVQTCREEHKKKHPDASVNFSEFSKKCSERWKTMSAKEKGKFEDMAKADKARYEREMKTYI
modifications: not checked
Kd [1]: 590 nM
koff [1]: 0.013 s⁻¹
kon [1]: 22000 M⁻¹ s⁻¹
Kd [2]: 1210 nM
koff [2]: 0.037 s⁻¹
kon [2]: 30800 M⁻¹ s⁻¹

B5: DTT reduced HMGB1, P63159 1-215 (natural protein)
chain: MGKGDPKKPRGKMSSYAFFVQTCREEHKKKHPDASVNFSEFSKKCSERWKTMSAKEKGKFEDMAKADKARYEREMKTYIPPKGETKKKFKDPNAPKRPPSAFFLFCSEYRPKIKGEHPGLSIGDVAKKLGEMWNNTAADDKQPYEKKAAKLKEKYEKDIAAYRAKGKPDAAKKGVVKAEKSKKKKEEEDDEEDEEDEEEEEEEEDEDEEEDDDDE
modifications: here or on the partner: cysteines reduced with DTT (no C23-C45 disulfide)
Kd [3]: 650 nM

B6: Recombinant A-box without GST tag (HMGB1 A-box domain) (domain or fragment)
chain: B1 chain
modifications: not checked
Kd [4]: 1030 nM
Kd [5]: 1550 nM

Now from value to binder:

Kd (Recombinant GST-A-box): 3250 nM
B2: human MD-2, Q9Y6Y9 19-160 (natural protein)
chain: QKQYWVCNSSDASISYTYCDKMQYPISINVNPCIELKRSKGLLHIFYIPRRDLKQLYFNLYITVNTMNLPKRKEVICRGSDDDYSFCRALKGETVNTTISFSFKGIKFSKGKYKCVVEAISGSPEEMLFCLEFVILHQPNSN

Kd (Recombinant GST-B-box): 1410 nM
B3: human MD-2 (natural protein)
chain: B2 chain

Kd [3]: 640 nM
fold slower dissociation rate than reduced HMGB1 [3]: 2 fold
koff [3]: 0.128 s⁻¹
B4: disulfide HMGB1 (High Mobility Group Box 1), P63159 1-215 (natural protein)
chain: B5 chain
modifications: here or on the partner: disulfide bond between C23 and C45
